Literature values as cited in paper PMC3985900.

Experiments:
Glu85 = Glu85 (UniProt position 98, WARYAEWLFTT); test: UV-vis; settings: Resting state, with retinal bound
Asp85 = Asp85 (UniProt position 98, WARYADWLFTT); test: UV-vis; settings: Resting state, with retinal bound

Row | Substance | pKa (Glu85) | pKa (Asp85)
1 | Bacteriorhodopsin D85E (Halobacterium salinarum; D85E) | 9.4 | 
2 | Bacteriorhodopsin (native, purple membrane) (Halobacterium salinarum) |  | ∼3
